Experimental data from the supplement of paper PMC5998384.

What was measured:
HeLa Kyoto [1] = assay: solubility in G1/S (NP-40 vs SDS abundance) (log2 ratio); higher = more soluble; settings: cell cycle stage: G1/S
HeLa Kyoto [2] = assay: melting temperature (median over replicates), in situ; higher = more thermally stable
HeLa Kyoto [3] = assay: solubility change mitosis vs G1/S (difference of NP-40 vs SDS log2 ratios) (log2 ratio difference); higher = more soluble in mitosis
HeLa Kyoto [4] = assay: thermal stability score vs G1/S (z-score of summed log2 fold changes over temperatures); higher = more thermally stable than in G1/S
[5] = cell cycle stage: early G1 (4.5 h after nocodazole release)
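Wherever melting temperature (median over replicates), in situ is given: HeLa Kyoto cells synchronized by double thymidine or nocodazole block, proteins quantified by TMT10plex mass spectrometry, three independent biological replicates.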
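Wherever solubility change mitosis vs G1/S (difference of NP-40 vs SDS log2 ratios) is given: synchronized HeLa Kyoto cells (double thymidine block for G1/S, nocodazole release for mitosis), protein amounts in NP-40 versus SDS lysates quantified by mass spectrometry, three biological replicates.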
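Wherever solubility in G1/S (NP-40 vs SDS abundance) is given: HeLa Kyoto cells arrested at G1/S by double thymidine block, proteins quantified by TMT10plex mass spectrometry in mild NP-40 versus SDS extracts, three biological replicates.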
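Wherever thermal stability score vs G1/S (z-score of summed log2 fold changes over temperatures) is given: synchronized HeLa Kyoto cells, proteins quantified by TMT10plex mass spectrometry, three biological replicates, mitosis taken 0.5 h after nocodazole release, G1/S directly after double thymidine block.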

Substance | solubility in G1/S (log2) (HeLa Kyoto [1]) | melting temperature (HeLa Kyoto [2]; cell cycle stage: G1/S) [°C] | solubility change mitosis (log2) (HeLa Kyoto [3]) | thermal stability score (HeLa Kyoto [4]; [5]) | thermal stability score (HeLa Kyoto [4]; cell cycle stage: mitosis) | melting temperature (HeLa Kyoto [2]; cell cycle stage: mitosis) [°C]
MERAISPGLLVRALLLLLLLLGLAARTVAAGRARGLPAPTAEAAFGLGAAAAPTSATRVPAAGAVAAAEVTVEDAEALPAAAGEQEPRGPEPDDETELRPRGRSLVIISTLDGRIAALDPENHGKKQWDLDVGSGSLVSSSLSKPEVFGNKMIIPSLDGALFQWDQDRESMETVPFTVESLLESSYKFGDDVVLVGGKSLTTYGLSAYSGKVRYICSALGCRQWDSDEMEQEEDILLLQRTQKTVRAVGPRSGNEKWNFSVGHFELRYIPDMETRAGFIESTFKPNENTEESKIISDVEEQEAAIMDIVIKVSVADWKVMAFSKKGGHLEWEYQFCTPIASAWLLKDGKVIPISLFDDTSYTSNDDVLEDEEDIVEAARGATENSVYLGMYRGQLYLQSSVRISEKFPSSPKALESVTNENAIIPLPTIKWKPLIHSPSRTPVLVGSDEFDKCLSNDKFSHEEYSNGALSILQYPYDNGYYLPYYKRERNKRSTQITVRFLDNPHYNKNIRKKDPVLLLHWWKEIVATILFCIIATTFIVRRLFHPHPHRQRKESETQCQTENKYDSVSGEANDSSWNDIKNSGYISRYLTDFEPIQCLGRGGFGVVFEAKNKVDDCNYAIKRIRLPNRELAREKVMREVKALAKLEHPGIVRYFNAWLEAPPEKWQEKMDEIWLKDESTDWPLSSPSPMDAPSVKIRRMDPFATKEHIEIIAPSPQRSRSFSVGISCDQTSSSESQFSPLEFSGMDHEDISESVDAAYNLQDSCLTDCDVEDGTMDGNDEGHSFELCPSEASPYVRSRERTSSSIVFEDSGCDNASSKEEPKTNRLHIGNHCANKLTAFKPTSSKSSSEATLSISPPRPTTLSLDLTKNTTEKLQPSSPKVYLYIQMQLCRKENLKDWMNGRCTIEERERSVCLHIFLQIAEAVEFLHSKGLMHRDLKPSNIFFTMDDVVKVGDFGLVTAMDQDEEEQTVLTPMPAYARHTGQVGTKLYMSPEQIHGNSYSHKVDIFSLGLILFELLYPFSTQMERVRTLTDVRNLKFPPLFTQKYPCEYVMVQDMLSPSPMERPEAINIIENAVFEDLDFPGKTVLRQRSRSLSSSGTKHSRQSNNSHSPLPSN [EIF2AK3] | 0.0589 | 51 | -0.0251 | -0.111 | 0.409 | –
MPSALAIFTCRPNSHPFQERHVYLDEPIKIGRSVARCRPAQNNATFDCKVLSRNHALVWFDHKTGKFYLQDTKSSNGTFINSQRLSRGSEESPPCEILSGDIIQFGVDVTENTRKVTHGCIVSTIKLFLPDGMEARLRSDVIHAPLPSPVDKVAANTPSMYSQELFQLSQYLQEALHREQMLEQKLATLQRLLAITQEASDTSWQALIDEDRLLSRLEVMGNQLQACSKNQTEDSLRKELIALQEDKHNYETTAKESLRRVLQEKIEVVRKLSEVERSLSNTEDECTHLKEMNERTQEELRELANKYNGAVNEIKDLSDKLKVAEGKQEEIQQKGQAEKKELQHKIDEMEEKEQELQAKIEALQADNDFTNERLTALQVRLEHLQEKTLKECSSLEHLLSKSGGDCTFIHQFIECQKKLIVEGHLTKAVEETKLSKENQTRAKESDFSDTLSPSKEKSSDDTTDAQMDEQDLNEPLAKVSLLKDDLQGAQSEIEAKQEIQHLRKELIEAQELARTSKQKCFELQALLEEERKAYRNQVEESTKQIQVLQAQLQRLHIDTENLREEKDSEITSTRDELLSARDEILLLHQAAAKVASERDTDIASLQEELKKVRAELERWRKAASEYEKEITSLQNSFQLRCQQCEDQQREEATRLQGELEKLRKEWNALETECHSLKRENVLLSSELQRQEKELHNSQKQSLELTSDLSILQMSRKELENQVGSLKEQHLRDSADLKTLLSKAENQAKDVQKEYEKTQTVLSELKLKFEMTEQEKQSITDELKQCKNNLKLLREKGNNKPWPWMPMLAALVAVTAIVLYVPGLARASP [SLMAP] | 0.152 | 50.6 | 0.0117 | 0.404 | 0.436 | 51.2
DYNC1H1 | -0.318 | 51.8 | -0.141 | 0.0561 | 2.96 | 51.2
MAEPSAPESKHKSSLNSSPWSGLMALGNSRHGHHGPGAQCAHKAAGGAAPPKPAPAGLSGGLSQPAGWQSLLSFTILFLAWLAGFSSRLFAVIRFESIIHEFDPWFNYRSTHHLASHGFYEFLNWFDERAWYPLGRIVGGTVYPGLMITAGLIHWILNTLNITVHIRDVCVFLAPTFSGLTSISTFLLTRELWNQGAGLLAACFIAIVPGYISRSVAGSFDNEGIAIFALQFTYYLWVKSVKTGSVFWTMCCCLSYFYMVSAWGGYVFIINLIPLHVFVLLLMQRYSKRVYIAYSTFYIVGLILSMQIPFVGFQPIRTSEHMAAAGVFALLQAYAFLQYLRDRLTKQEFQTLFFLGVSLAAGAVFLSVIYLTYTGYIAPWSGRFYSLWDTGYAKIHIPIIASVSEHQPTTWVSFFFDLHILVCTFPAGLWFCIKNINDERVFVALYAISAVYFAGVMVRLMLTLTPVVCMLSAIAFSNVFEHYLGDDMKRENPPVEDSSDEDDKRNQGNLYDKAGKVRKHATEQEKTEEGLGPNIKSIVTMLMLMLLMMFAVHCTWVTSNAYSSPSVVLASYNHDGTRNILDDFREAYFWLRQNTDEHARVMSWWDYGYQIAGMANRTTLVDNNTWNNSHIALVGKAMSSNETAAYKIMRTLDVDYVLVIFGGVIGYSGDDINKFLWMVRIAEGEHPKDIRESDYFTPQGEFRVDKAGSPTLLNCLMYKMSYYRFGEMQLDFRTPPGFDRTRNAEIGNKDIKFKHLEEAFTSEHWLVRIYKVKAPDNRETLDHKPRVTNIFPKQKYLSKKTTKRKRGYIKNKLVFKKGKKISKKTV [STT3B] | -0.175 | 53.8 | -0.0861 | 3.35 | 3.7 | 54.2
MSTGTFVVSQPLNYRGGARVEPADASGTEKAFEPATGRVIATFTCSGEKEVNLAVQNAKAAFKIWSQKSGMERCRILLEAARIIREREDEIATMECINNGKSIFEARLDIDISWQCLEYYAGLAASMAGEHIQLPGGSFGYTRREPLGVCVGIGAWNYPFQIASWKSAPALACGNAMVFKPSPFTPVSALLLAEIYSEAGVPPGLFNVVQGGAATGQFLCQHPDVAKVSFTGSVPTGMKIMEMSAKGIKPVTLELGGKSPLIIFSDCDMNNAVKGALMANFLTQGQVCCNGTRVFVQKEILDKFTEEVVKQTQRIKIGDPLLEDTRMGPLINRPHLERVLGFVKVAKEQGAKVLCGGDIYVPEDPKLKDGYYMRPCVLTNCRDDMTCVKEEIFGPVMSILSFDTEAEVLERANDTTFGLAAGVFTRDIQRAHRVVAELQAGTCFINNYNVSPVELPFGGYKKSGFGRENGRVTIEYYSQLKTVCVEMGDVESAF [ALDH9A1] | 0.24 | 57.1 | -0.0784 | 0.248 | -0.642 | 57.3
MGLAGVCALRRSAGYILVGGAGGQSAAAAARRYSEGEWASGGVRSFSRAAAAMAPIKVGDAIPAVEVFEGEPGNKVNLAELFKGKKGVLFGVPGAFTPGCSKTHLPGFVEQAEALKAKGVQVVACLSVNDAFVTGEWGRAHKAEGKVRLLADPTGAFGKETDLLLDDSLVSIFGNRRLKRFSMVVQDGIVKALNVEPDGTGLTCSLAPNIISQL [PRDX5] | 0.582 | 55.9 | 0.124 | -1.13 | -2.67 | 55.9
MAETAAGVGRFKTNYAVERKIEPFYKGGKAQLDQTGQHLFCVCGTRVNILEVASGAVLRSLEQEDQEDITAFDLSPDNEVLVTASRALLLAQWAWQEGSVTRLWKAIHTAPVATMAFDPTSTLLATGGCDGAVRVWDIVRHYGTHHFRGSPGVVHLVAFHPDPTRLLLFSSATDAAIRVWSLQDRSCLAVLTAHYSAVTSLAFSADGHTMLSSGRDKICIIWDLQSCQATRTVPVFESVEAAVLLPEEPVSQLGVKSPGLYFLTAGDQGTLRVWEAASGQCVYTQAQPPGPGQELTHCTLAHTAGVVLTATADHNLLLYEARSLRLQKQFAGYSEEVLDVRFLGPEDSHVVVASNSPCLKVFELQTSACQILHGHTDIVLALDVFRKGWLFASCAKDQSVRIWRMNKAGQVMCVAQGSGHTHSVGTVCCSRLKESFLVTGSQDCTVKLWPLPKALLSKNTAPDNGPILLQAQTTQRCHDKDINSVAIAPNDKLLATGSQDRTAKLWALPQCQLLGVFSGHRRGLWCVQFSPMDQVLATASADGTIKLWALQDFSCLKTFEGHDASVLKVAFVSRGTQLLSSGSDGLVKLWTIKNNECVRTLDAHEDKVWGLHCSRLDDHALTGASDSRVILWKDVTEAEQAEEQARQEEQVVRQQELDNLLHEKRYLRALGLAISLDRPHTVLTVIQAIRRDPEACEKLEATMLRLRRDQKEALLRFCVTWNTNSRHCHEAQAVLGVLLRREAPEELLAYEGVRAALEALLPYTERHFQRLSRTLQAAAFLDFLWHNMKLPVPAAAPTPWETHKGALP [TBL3] | -0.936 | 50.6 | 0.233 | 1.58 | -0.746 | 51.3
MALLCLDGVFLSSAENDFVHRIQEELDRFLLQKQLSKVLLFPPLSSRLRYLIHRTAENFDLLSSFSVGEGWKRRTVICHQDIRVPSSDGLSGPCRAPASCPSRYHGPRPISNQGAAAVPRGARAGRWYRGRKPDQPLYVPRVLRRQEEWGLTSTSVLKREAPAGRDPEEPGDVGAGDPNSDQGLPVLMTQGTEDLKGPGQRCENEPLLDPVGPEPLGPESQSGKGDMVEMATRFGSTLQLDLEKGKESLLEKRLVAEEEEDEEEVEEDGPSSCSEDDYSELLQEITDNLTKKEIQIEKIHLDTSSFVEELPGEKDLAHVVEIYDFEPALKTEDLLATFSEFQEKGFRIQWVDDTHALGIFPCLASAAEALTREFSVLKIRPLTQGTKQSKLKALQRPKLLRLVKERPQTNATVARRLVARALGLQHKKKERPAVRGPLPP [R3HCC1] | -0.047 | – | -0.0167 | -0.563 | -0.284 | 51.1
MSASAVYVLDLKGKVLICRNYRGDVDMSEVEHFMPILMEKEEEGMLSPILAHGGVRFMWIKHNNLYLVATSKKNACVSLVFSFLYKVVQVFSEYFKELEEESIRDNFVIIYELLDELMDFGYPQTTDSKILQEYITQEGHKLETGAPRPPATVTNAVSWRSEGIKYRKNEVFLDVIESVNLLVSANGNVLRSEIVGSIKMRVFLSGMPELRLGLNDKVLFDNTGRGKSKSVELEDVKFHQCVRLSRFENDRTISFIPPDGEFELMSYRLNTHVKPLIWIESVIEKHSHSRIEYMIKAKSQFKRRSTANNVEIHIPVPNDADSPKFKTTVGSVKWVPENSEIVWSIKSFPGGKEYLMRAHFGLPSVEAEDKEGKPPISVKFEIPYFTTSGIQVRYLKIIEKSGYQALPWVRYITQNGDYQLRTQ [AP1M1] | -0.0655 | 50.8 | -0.209 | -0.363 | -0.744 | 50.6
